Experiments:
[1] = immunofluorescence with ER marker PDI, COS-7; conditions: glycan lost
[2] = western blot of total lysate, COS-7; conditions: glycan lost; control: WT Vstm5
[3] = surface biotinylation, pull-down, western, COS-7; conditions: glycan lost; control: WT Vstm5

Row | Protein | localisation_or_trafficking ([1]; control: WT Vstm5) | expression_or_secretion [2] | localisation_or_trafficking, fold_change [3] | localisation_or_trafficking ([1]; control: DMSO-treated)
1 | V-set and transmembrane domain-containing protein 5 (Vstm5): N43,87,101,108A (protein) parent chain: MRPLRCGERTQGIPLGLLAFWVTAARCLQSQGVSLYIPQSAINATVQQDILLSVDYICHGVPTIEWKYTPNWGVQRIVEWKPGTPANVSQSHRDRVCTFDNGSIQLFNVSVKDSGYYIVTVTEHPGSSQSGTILLRVSEIRYEDLHFVAVFFALLAAVAVVLISLMWVCNQCAYKFQRKRRYKLKESTTEEIEMKEVEC | changes | no change | decreases | 
2 | V-set and transmembrane domain-containing protein 5 (Vstm5): N101,108A (protein) parent chain: MRPLRCGERTQGIPLGLLAFWVTAARCLQSQGVSLYIPQSAINATVQQDILLSVDYICHGVPTIEWKYTPNWGVQRIVEWKPGTPANVSQSHRDRVCTFDNGSIQLFNVSVKDSGYYIVTVTEHPGSSQSGTILLRVSEIRYEDLHFVAVFFALLAAVAVVLISLMWVCNQCAYKFQRKRRYKLKESTTEEIEMKEVEC |  | no change | no change | 
3 | V-set and transmembrane domain-containing protein 5 (Vstm5): N101A (protein) parent chain: MRPLRCGERTQGIPLGLLAFWVTAARCLQSQGVSLYIPQSAINATVQQDILLSVDYICHGVPTIEWKYTPNWGVQRIVEWKPGTPANVSQSHRDRVCTFDNGSIQLFNVSVKDSGYYIVTVTEHPGSSQSGTILLRVSEIRYEDLHFVAVFFALLAAVAVVLISLMWVCNQCAYKFQRKRRYKLKESTTEEIEMKEVEC |  | no change | decreases | 
4 | V-set and transmembrane domain-containing protein 5 (Vstm5): tunicamycin (protein) parent chain: MRPLRCGERTQGIPLGLLAFWVTAARCLQSQGVSLYIPQSAINATVQQDILLSVDYICHGVPTIEWKYTPNWGVQRIVEWKPGTPANVSQSHRDRVCTFDNGSIQLFNVSVKDSGYYIVTVTEHPGSSQSGTILLRVSEIRYEDLHFVAVFFALLAAVAVVLISLMWVCNQCAYKFQRKRRYKLKESTTEEIEMKEVEC |  |  |  | changes
5 | V-set and transmembrane domain-containing protein 5 (Vstm5): N43,87A (protein) parent chain: MRPLRCGERTQGIPLGLLAFWVTAARCLQSQGVSLYIPQSAINATVQQDILLSVDYICHGVPTIEWKYTPNWGVQRIVEWKPGTPANVSQSHRDRVCTFDNGSIQLFNVSVKDSGYYIVTVTEHPGSSQSGTILLRVSEIRYEDLHFVAVFFALLAAVAVVLISLMWVCNQCAYKFQRKRRYKLKESTTEEIEMKEVEC |  | no change | decreases | 
6 | V-set and transmembrane domain-containing protein 5 (Vstm5): N108A (protein) parent chain: MRPLRCGERTQGIPLGLLAFWVTAARCLQSQGVSLYIPQSAINATVQQDILLSVDYICHGVPTIEWKYTPNWGVQRIVEWKPGTPANVSQSHRDRVCTFDNGSIQLFNVSVKDSGYYIVTVTEHPGSSQSGTILLRVSEIRYEDLHFVAVFFALLAAVAVVLISLMWVCNQCAYKFQRKRRYKLKESTTEEIEMKEVEC |  | no change | increases | 
7 | V-set and transmembrane domain-containing protein 5 (Vstm5): N43A (protein) parent chain: MRPLRCGERTQGIPLGLLAFWVTAARCLQSQGVSLYIPQSAINATVQQDILLSVDYICHGVPTIEWKYTPNWGVQRIVEWKPGTPANVSQSHRDRVCTFDNGSIQLFNVSVKDSGYYIVTVTEHPGSSQSGTILLRVSEIRYEDLHFVAVFFALLAAVAVVLISLMWVCNQCAYKFQRKRRYKLKESTTEEIEMKEVEC |  | no change | decreases | 
8 | V-set and transmembrane domain-containing protein 5 (Vstm5): N87A (protein) parent chain: MRPLRCGERTQGIPLGLLAFWVTAARCLQSQGVSLYIPQSAINATVQQDILLSVDYICHGVPTIEWKYTPNWGVQRIVEWKPGTPANVSQSHRDRVCTFDNGSIQLFNVSVKDSGYYIVTVTEHPGSSQSGTILLRVSEIRYEDLHFVAVFFALLAAVAVVLISLMWVCNQCAYKFQRKRRYKLKESTTEEIEMKEVEC |  | no change | increases | 
9 | V-set and transmembrane domain-containing protein 5 (Vstm5): N87,101,108A (protein) parent chain: MRPLRCGERTQGIPLGLLAFWVTAARCLQSQGVSLYIPQSAINATVQQDILLSVDYICHGVPTIEWKYTPNWGVQRIVEWKPGTPANVSQSHRDRVCTFDNGSIQLFNVSVKDSGYYIVTVTEHPGSSQSGTILLRVSEIRYEDLHFVAVFFALLAAVAVVLISLMWVCNQCAYKFQRKRRYKLKESTTEEIEMKEVEC |  | no change | decreases | 
